Assay results: patent US10208288B2, “Differentiation of human embryonic stem cells into pancreatic endocrine cells” (Janssen Biotech, Inc., priority 2012, dated 2019)

System: cells of the human embryonic stem cell line H1 differentiated to stage 5
Test: Real-time PCR of pancreatic endoderm/endocrine genes after factors spiked into stage 5 media
Type: cell-based
Procedure: Cells of the human embryonic stem cell line H1 (hESC H1, passage 40) were seeded as single cells at 1×10^5 cells/cm^2 on MATRIGEL™ (1:30 dilution; BD Biosciences, NJ)-coated dishes in mTeSR®1 media (StemCell Technologies, Vancouver, Canada) supplemented with 10 μM of Y27632 (Rock inhibitor, Catalog No. Y0503, SigmaAldrich, St. Louis, Mo.). Forty-eight hours post seeding, cultures were washed in incomplete PBS (phosphate buffered saline without Mg or Ca). Cultures were differentiated into pancreatic endoderm/endocrine lineages as follows: • a) Stage 1 (Definitive Endoderm (DE)—3 days): Cells were cultured for one day in stage 1 media: MCDB-131 medium (Catalog No. 10372-019, Invitrogen, Carlsbad, Calif.) supplemented with 0.1% fatty acid-free BSA (Catalog No. 68700, Proliant, Ankeny, Iowa), 0.0012 g/ml sodium bicarbonate (Catalog No. S3187, SigmaAldrich, St. Louis, Mo.), 1× GlutaMax™ (Invitrogen Catalog No. 35050-079), 4.5 mM D-Glucose (SigmaAldrich Catalog No. G8769), 100 ng/ml GDF8 (R&D Systems, Minneapolis, Minn.) and 1 μM MCX compound (a GSK3B inhibitor, 14-Prop-2-en-1-yl-3,5,7,14,17,23,27-heptaazatetracyclo [19.3.1.1˜2,6˜0.1˜8,12˜]heptacosa-1(25),2(27),3,5,8(26),9,11,21,23-nonaen-16-one, US Patent Application Publication No. 2010-0015711; incorporated herein by reference in its entirety). Cells were then cultured for additional day in MCDB-131 medium supplemented with 0.1% fatty acid-free BSA, 0.0012 g/ml sodium bicarbonate, 1× GlutaMax™, 4.5 mM D-Glucose, 100 ng/ml GDF8, and 0.1 μM MCX compound. Cells were then cultured for an additional day in MCDB-131 medium supplemented with 0.1% fatty acid-free BSA, 0.0012 g/ml sodium bicarbonate, 1× GlutaMax™, 4.5 mM D-Glucose, and 100 ng/ml GDF8, then • b) Stage 2 (Primitive gut tube—2 days): Cells were treated for two days with MCDB-131 medium supplemented with 0.1% fatty acid-free BSA; 0.0012 g/ml sodium bicarbonate; 1× GlutaMax™; 4.5 mM D-Glucose; 0.25 mM ascorbic acid (Sigma, St. Louis, Mo.) and 25 ng/ml FGF7 (R & D Systems, Minneapolis, Minn.), then • c) Stage 3 (Foregut—2 days): Cells were treated with MCDB-131 medium supplemented with a 1:200 dilution of ITS-X (Invitrogen); 4.5 mM Glucose; 1× GlutaMax™; 0.0017 g/ml sodium bicarbonate; 2% fatty acid-free BSA; 0.25 μM SANT-1 (Sigma, St. Louis, Mo.); 10 ng/ml of Activin-A (R & D Systems); 1 μM retinoic acid (RA; Sigma); 25 ng/ml FGF7; 0.25 mM ascorbic acid; 200 nM TPB (a PKC activator; Catalog No. 565740; EMD Chemicals, Gibstown, N.J.); 10 μM forskolin (FSK, Sigma), and 100 nM LDN (a BMP receptor inhibitor; Catalog No. 04-0019; Stemgent; San Diego, Calif.) for day 1. On day 2, cells were treated with MCDB-131 medium supplemented with a 1:200 dilution of ITS-X; 4.5 mM Glucose; 1× GlutaMax™; 0.0017 g/ml sodium bicarbonate; 2% fatty acid-free BSA; 0.25 μM SANT-1; 10 ng/ml of Activin A; 1 μM RA; 25 ng/ml FGF7; 0.25 mM ascorbic acid, 200 nM TPB, 10 μM forskolin and 10 nM LDN, then • d) Stage 4 (Pancreatic foregut precursor—2 days); Cells were treated with MCDB-131 medium supplemented with a 1:200 dilution of ITS-X; 4.5 mM Glucose; 1× GlutaMax™; 0.0015 g/ml sodium bicarbonate; 2% fatty acid-free BSA; 0.25 μM SANT-1; 50 nM RA; 50 nM LDN-193189; 10 μM forskolin; 0.25 mM ascorbic acid; and 100 nM TPB for two days, then • e) Stage 5 (Pancreatic endoderm/endocrine—3 days): Stage 4 cells were treated with MCDB-131 medium supplemented with a 1:200 dilution of ITS-X; 20 mM Glucose; 1× GlutaMax™; 0.0015 g/ml sodium bicarbonate; 2% fatty acid-free BSA; 0.25 μM SANT-1; 50 nM RA; 10 μM forskolin; 0.25 mM ascorbic acid for three days, with the addition of 100 nM ALk5 inhibitor SD-208 (disclosed in Molecular Pharmacology 2007, 72:152-161) for days 2-3 only.
At day 1 of stage 5, the factors listed in Table I, below, were spiked into the media and upon completion of S5 (day 3 of stage 5) mRNA was collected for PCR analysis of relevant pancreatic endoderm/endocrine genes. As a control, cultures were treated only with the S5 media listed above. […]

B1: Ephrin-A4: Ephrin ligand protein, R & D Systems catalogue number 369-EA (protein, UniProt P52798 26-170, looked up)
Ephrin-A4: LRHVVYWNSSNPRLLRGDAVVELGLNDYLDIVCPHYEGPGPPEGPETFALYMVDWPGYESCQAEGPRAYKRWVCSLPFGHVQFSEKIQRFTPFSLGFEFLPGETYYYISVPTPESSGQCLRLQVSVCCKERKSESAHPVGSPGES
PDX1 expression (Ephrin-A4 100 ng/ml at S5, mRNA at day 3 of S5, vs control, FIG. 1E): minimal impact
NGN3 expression (Ephrin-A4 100 ng/ml at S5, mRNA at day 3 of S5, vs control, FIG. 1G): minimal impact
mRNA expression of insulin (factor spiked at day 1 of stage 5, mRNA at day 3 of S5, vs control cultures, Table I: Ephrin-A4 100 ng/ml, Activin A and Activin C 20 ng/ml, FIG. 1A): enhanced
mRNA expression of NKX6.1 (factor spiked at day 1 of stage 5, mRNA at day 3 of S5, vs control cultures, Table I: Ephrin-A4 100 ng/ml, Semaphorin 3a 50 ng/ml, Epigen 20 ng/ml, FIG. 1F): enhanced
